Common to all, as to assay type: binding
One experiment concerns the target htau40 (Homo sapiens, UniProt P10636). Description: Biacore X100 SPR of anti-tau mAbs on immobilised htau40. As to conditions: mAb, Table 27, immobilised hT40. The essentials: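 htau40 amine-coupled to a CM5 chip (~250 RU); mAb injected at 0.78–25 nM in HBS-EP+ at 30 μL/min, 120 s association, 600 s dissociation, glycine pH 1.5 regeneration. Kinetics and affinity from 1:1 binding fit with reference-cell subtraction.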
In general terms: SPR reads the build-up and loss of mass on a sensor chip optically.

The subject of another experiment is tau fragments in plasma. Description: Capture ELISA on transgenic mouse plasma. The conditions noted are these: detection scAb, Line66 transgenic model. How it is done:
Plasma samples from WT, L1, L66+/− and L66^+/+ of various ages (1.5-9 months) were taken as described. Mice were terminally anaesthetized using an overdose of sodium pentobarbital and blood was collected through cardiac puncture through a Plastipak syringe pre-rinsed with heparinised saline heparin (10 U/ml) (Heparin sodium salt; Sigma-Aldrich) and transferred into a plastic vial containing lithium heparin anticoagulant (Sarstedt Ltd.) Blood samples, kept on ice for no more than 30 minutes, were centrifuged to obtain plasma at 2000× g for 5 minutes at 6° C. Plasma samples were stored at −20° C.
For mouse plasma capture ELISA, 100 μL capture mAb was coated to the bottom of a black nunc 96 well ‘maxisorp’ plate at 2.5 μg/ml and incubated for 1 hour at 37° C. After washing and blocking as normal, several known standard solutions were set up in triplicate starting at 20 ng/ml of the desired protein before double diluted in the remaining wells. Mouse samples were added to wells in duplicate with a blank in between each sample group. Line1 plasma was diluted 1:10 before addition to plate to account for its high concentration while other samples were diluted 1:2 to account for potential matrix effects. […] The ELISA was developed using SuperSignal ELISA Femto Substrate (Thermo Scientific) and total luminescence was read on Clariostar Plus plate reader (BMG Labtech). […]
For orientation: In an ELISA, binding on a coated surface is turned into a signal by an enzyme label.

For experiment [1], the system named is tau protein in brain homogenate. Nature of the experiment: Capture ELISA on transgenic mouse brain lysates. The conditions noted are these: S1D12 mAb capture; WT, L1, L66+/- and L66+/+. Here is the method: Mouse brain lysates were prepared from wildtype, Line 1, Line 66+/+ and Line 66+/− (Melis et al., 2015, all surplus from Charles River, part of study R0144). All animals were female, 7-8 months old except Line 66+/+ which were 5 months old. […] The L1 cDNA construct (FIG. 23) contains human tau cDNA coding for amino acid residues 296-390 with a signal sequence and related sequences in a murine Thy-1 expression cassette. For brain lysate preparation, half brains were sectioned into four and the individual sections were homogenised in 400 μl of ice cold RIPA buffer (Cell signalling Technology) containing protease and phosphatase inhibitors. Total protein concentrations for individual samples were established by BCA-assay and each sample was subsequently diluted to 1 mg/ml for future experiments.
For capture ELISA, 100 µL S1D12 capture mAb was used to coat a nunc 96 well Maxisorp plate at 1 μg/ml and incubated for 1 hour at 37° C. Plate was washed as previously and then blocked for 1 hour at 37° C., in 2% MPBS. Brain homogenate samples (50 ng total protein) from each mouse type were added to the first wells and double diluted across the plate in PBS. These samples were left to incubate at RT for 1 hour. Various detection scAbs encompassing epitopes of interest were then added to the plate at 1 μg/ml and incubated for 1 h at RT. […]

The subject of a further experiment is human tau and mouse tau. Description: Western blot of WT, L66+/+ and L1+/+ mouse brain homogenates. As to conditions: 20 μg protein, 5-month-old mice. Here is the method:
Protein equivalent to 20 μg from each brain extract was separated using 4-20% bis-tris gels and run in 1×MES buffer.
A band is detected in each sample (WT, L66^+/+ and L1^+/+) with an apparent molecular weight of approximately 55 kDa. This band most likely corresponds to endogenous mouse tau which is of a similar size. In the L66^+/+ samples, a second band running at approximately 68 kDa is also detected. The presence of numerous other bands indicates proteolytic truncation of tau within brain homogenates.

The target of the next experiment is hT40 (Homo sapiens, UniProt P10636). Description: Biacore X100 SPR, scAb captured via anti-HuCk, hT40 as analyte. As to conditions: scAb, Table 23, T441 (hT40). The essentials: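 Captured scAb on anti-HuCk CM5 surface (flow cell 1 as reference) in HBS-EP+, capture set for theoretical RMax 100 RU; hT40 injected multi-cycle (0.15625–100 nM) or single-cycle (6.25–100 nM), 120 s association, 420 s dissociation, glycine pH 2.0 regeneration. Kinetics and affinity from 1:1 binding model fit.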
Chain of hT40 (P10636 1-441 isoform P10636-8): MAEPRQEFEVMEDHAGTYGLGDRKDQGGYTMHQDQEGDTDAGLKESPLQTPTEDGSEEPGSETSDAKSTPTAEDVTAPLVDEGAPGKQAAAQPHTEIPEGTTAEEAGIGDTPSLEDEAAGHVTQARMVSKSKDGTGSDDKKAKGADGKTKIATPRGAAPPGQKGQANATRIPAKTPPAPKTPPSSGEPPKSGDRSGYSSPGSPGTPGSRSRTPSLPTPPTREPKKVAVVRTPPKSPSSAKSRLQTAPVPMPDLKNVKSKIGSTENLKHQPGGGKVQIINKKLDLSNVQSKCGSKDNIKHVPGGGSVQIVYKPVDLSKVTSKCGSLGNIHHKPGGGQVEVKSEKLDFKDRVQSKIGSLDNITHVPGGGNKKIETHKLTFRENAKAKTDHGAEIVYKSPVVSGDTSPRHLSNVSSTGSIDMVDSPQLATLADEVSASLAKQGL

The values that follow come from patent publication US12624096B2, “Anti-tau antibodies and methods of use thereof” (GTInvent Limited, priority 2020, dated 2026).

Chain of htau40 (P10636 1-441 isoform P10636-8): as above

B1: CB7: anti-tau clone, SEQ ID NO: 364 (protein)
scFv: QVQLQESGPSLVKPSQTLSLTCTVSGFSLTNYRVGWVRQAPGKALEWVSNIRSGGTTWYNPALKSRLSITADTSKSQVSLSLSSVTTEDTAVYYCARDSSGDLYAYDYWGPGLLVTVSSEGKSSGASGESKVDDQAVLTQPSSVSRSLGQSVSMTCSGSSSNVGYGNYMAWFQQVPGSAPKLLIYGATSRASGVPDRFSGSRSGNTATLTISSLQAEDEADYYCASYDSTSGGVFGSGTRLTVLG
modifications: CB7 amino acid sequence
Regarding B1, the ka turned out to be 2.568e+06 M⁻¹ s⁻¹ with htau40 and 133400 M⁻¹ s⁻¹ with hT40. For the same molecule, the kd is 0.009451 s⁻¹ in the experiment with htau40 and 0.0006936 s⁻¹ in the experiment with hT40. For the same molecule, the “cross reaction with endogenous mouse tau protein” value in the experiment with tau fragments in plasma was “does not cross react with endogenous mouse tau protein”. In addition, the “tau detection in mouse brain homogenate” value in experiment [1] was “hT40 tau was specifically detected in L66 samples”. Also, the “bands detected in western blot of WT, L66+/+ and L1+/+ brain homogenates” value in the experiment with human tau and mouse tau is given as “show specificity for human tau”.
